Results: the supplement of paper PMC12042874
± gives the uncertainty stated by the source.

experiment: amyloid nucleation score (Sup35N fusion, yeast selection) (log enrichment); library NNK2; higher = more nucleation; inactive = no reads after selection
Outline: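 Growth for 7 days at 30°C on medium lacking adenine and uracil followed a 24-hour induction with 100 μM copper sulfate of psi-negative yeast expressing peptides of 20 random codons fused to Sup35N. Input and output plasmid inserts were sequenced with Illumina, and sequences with under 100 input reads were excluded. Nucleation score is the DiMSum log enrichment of output over input reads, centred on the mode score of non-aggregating sequences.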

| Substance | amyloid nucleation score |
| --- | --- |
| EYSPCPSCT | 3.966 ± 0.037 |
| EYSTFPRRSDRSEIHFSINL | 3.47 ± 0.12 |
| EYVVSLHVFRLHIKLKIFRV | -0.09 ± 0.65 |
| EYYINFVNNTFCVDSLRSLD | 5.068 ± 0.035 |
| FAEFKVQIYLSWLYPEIPVN | -0.455 ± 1.1 |
| FAIHLKLMYVGTDFSNVRDI | -1.15 ± 0.76 |
| FAKIRGLITFVLQMWVTVYV | -0.278 ± 0.45 |
| FANGRFMNPSHGLYSLPLKR | 0.09 ± 0.51 |
| FAPRSKPLRSLFEGLLF | 0.495 ± 0.57 |
| FASFVSIGRVVLLYSPSCYQ | 5.71 ± 0.059 |
| FASSEVYTGVSYIIHVSVYS | -0.714 ± 1 |
| FCDVQDFAVLSGVELLNLSY | -0.751 ± 0.39 |
| FCELLIVAVLLQGDSLKPQS | 0.485 ± 0.36 |
| FCFFSLVRLYKGYRSSINLA | inactive |
| FCHCFRGYARDHHRMTQLGN | -0.674 ± 0.76 |
| FCKVGFALLGVNQDVLYEMS | -0.714 ± 1 |
| FCMNTQH | 5.288 ± 0.042 |
| FCMVGLCMCGRQEMCGSTDS | 5.99 ± 0.062 |
| FCRSYCVLVYLWSPYVTGSK | 0.349 ± 0.5 |
| FCSFSMFRLAS | 0.606 ± 0.8 |
| FCYCLIKGCMLEGLSNYSCD | -0.613 ± 1.1 |
| FCYIDGLGYSRFNMHAEPSG | -0.326 ± 0.48 |

| Substance | amyloid nucleation score |
| --- | --- |
| FDALRIFVPVPYRRWSSR | 1.52 ± 0.28 |
| FDLNAREHYRASRGDTGTGH | 1.16 ± 0.68 |
| FDLNVVDIFTLCMRKRYTME | inactive |
| FDPLTFFGHRYCMQDMQLSD | -0.027 ± 0.32 |
| FDSEQLIRYD | -0.909 ± 1.1 |
| FDTASTVDSVRIRKTKSSQ | inactive |
| FDVSFILSL | -1.34 ± 1 |
| FDWMI | 0.926 ± 0.28 |
| FECKCKVYTPAWGCHQYLIL | inactive |
| FECKVVILKCRLGYIFGANN | 1.26 ± 0.16 |
| FEFYLIARIFCPKGLLCESS | inactive |
| FEGLWQTFTMSLQGNLKYIF | -0.4 ± 0.74 |
| FEGQA | -1.8 ± 0.54 |
| FEWSTGCG | inactive |
| FEYIVVESVCRSWWNLVS | -0.051 ± 0.55 |
| FEYYIDPRK | -1.27 ± 0.61 |
| FFFVWESNPSIWDGTFTVEV | 0.21 ± 0.46 |
| FFISLDRVMLTGLKLTCPLG | -0.266 ± 1.1 |
| FFIWKVLDWHLNSRSYRWFG | -0.325 ± 0.76 |
| FFKGLSKSIQVGL | -1.06 ± 0.56 |
| FFLLVCVDGKTRRVD | 0.8 ± 0.15 |
| FFLNVFDIMRILLYN | inactive |

| Substance | amyloid nucleation score |
| --- | --- |
| FFLSNWAAF | 0.234 ± 0.55 |
| FFLSRFLV | -0.27 ± 0.79 |
| FFSDVSLVQYHLTLRFLMAY | -1.69 ± 0.62 |
| FFSGGIILHYSYPTWEWYRS | 2.92 ± 0.098 |
| FFSLSQQYSRSVIVYAKLHL | -0.98 ± 0.54 |
| FFTHTWLRRLKTLCVSFVPK | -0.516 ± 0.45 |
| FFTQGSCDTILRGLAFFTPR | -0.26 ± 1 |
| FFVDMSYPGSWNICYLTRFC | inactive |
| FFVESRSCSGYKMMKRCLDV | 1.54 ± 0.15 |
| FFVFGSWPHSSQGEGSLHKG | 0.387 ± 0.8 |
| FFVKTLFEGSLDVSSNSTFF | -0.304 ± 1.1 |
| FFYALGYRISDAMEIRRVGS | 2.35 ± 0.059 |
| FFYWL | inactive |
| FFYWLAMIW | -0.582 ± 0.63 |
| FGFLPSVIWEASDIGSDCLE | 0.072 ± 1.1 |
| FGFWSPATVNNVRALIKDCV | -0.409 ± 0.53 |
| FGIHHCLVCRLNLDFISGVD | -0.877 ± 0.62 |
| FGMRTGWREGGESCSTHERG | 1.14 ± 0.38 |
| FGMTRRETWNLSGCESITCT | 0.593 ± 0.45 |
| FGNGDKSGMIGINVNLLCRM | 5.73 ± 0.034 |
| FGPSRYTRSVFSVEQTSL | -0.114 ± 1 |
| FGYLVIKFVTYVRRRTNTYN | -0.113 ± 0.56 |

| Substance | amyloid nucleation score |
| --- | --- |
| FHAYTGCVWVTCQYGWRRDT | 1.9 ± 0.15 |
| FHCNPIS | -0.277 ± 1.1 |
| FHGAYIGASSVNDPSVSD | 5.322 ± 0.04 |
| FHHSHANSNVSRGIDIFGAV | -0.454 ± 0.32 |
| FHKKAMIRSFCPKEIDLGSM | inactive |
| FHLIALNCRWADDLFIGSGV | 0.374 ± 0.62 |
| FHMVIGWYICLICNGFYTFF | inactive |
| FHRPWTFLLLNLPTRGFFLR | inactive |
| FIDDSDFKYSYSAQFVCLID | 4.91 ± 0.1 |
| FIELMCWRSH | -0.315 ± 0.45 |
| FIERILAVSCFAYFVKPSTV | 5.44 ± 0.042 |
| FIFIMGIFERLH | -1.54 ± 1.1 |
| FIIIVLNNSVFRMKCALASI | -0.202 ± 1.1 |
| FISMLAISDIRHALDWHTSV | 0.979 ± 0.17 |
| FISSADLVTNMPRI | -0.8 ± 0.31 |
| FISTGRRQTFQTRTRSNLWV | 0.195 ± 0.37 |
| FIWSYVLSRGSV | -1.03 ± 0.31 |
| FKFLADVVPWFSSRWSHLMM | -0.867 ± 0.37 |
| FKGSDHCSKCRQVGEFVFST | -0.707 ± 1.1 |
